Key:
[1] = biological target: T1, PD-L1 extracellular domain (ECD) (UniProt Q9NZQ7 19-238, limits assumed); assay: BLI competition: B8 VNAR immobilized on the tip, 100 nM PD-L1, soluble B8 VNAR titrated as competitor
T1 construct: extracellular domain; Soluble PD-L1 used in the yeast-display titrations and in BLI; Tags or biotinylation are not described; also called Programmed death-ligand 1; CD274

[2] = biological target: T1, PD-L1 extracellular domain (ECD); assay: BLI, equilibrium binding, soluble fragment on immobilized PD-L1
[3] = biological target: T1, PD-L1 extracellular domain (ECD); assay: yeast-displayed clone, soluble PD-L1 titration, flow cytometry
PD-L1 on cells [4] = biological target: PD-L1 on cells (UniProt Q9NZQ7); assay: equilibrium binding to cells (method 'Cell'; cell line not stated)
PD-L1 on cells [5] = biological target: PD-L1 on cells (UniProt Q9NZQ7); assay: cell-based or functional assay

T1 sequence (Q9NZQ7 19-238 limits assumed): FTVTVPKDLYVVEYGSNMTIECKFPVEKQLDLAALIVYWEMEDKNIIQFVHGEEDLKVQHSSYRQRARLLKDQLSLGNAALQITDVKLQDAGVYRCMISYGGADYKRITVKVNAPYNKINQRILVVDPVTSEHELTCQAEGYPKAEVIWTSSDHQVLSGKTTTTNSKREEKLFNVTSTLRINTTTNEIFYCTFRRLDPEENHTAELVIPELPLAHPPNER
Chain of PD-L1 on cells (Q9NZQ7 19-290 limits assumed): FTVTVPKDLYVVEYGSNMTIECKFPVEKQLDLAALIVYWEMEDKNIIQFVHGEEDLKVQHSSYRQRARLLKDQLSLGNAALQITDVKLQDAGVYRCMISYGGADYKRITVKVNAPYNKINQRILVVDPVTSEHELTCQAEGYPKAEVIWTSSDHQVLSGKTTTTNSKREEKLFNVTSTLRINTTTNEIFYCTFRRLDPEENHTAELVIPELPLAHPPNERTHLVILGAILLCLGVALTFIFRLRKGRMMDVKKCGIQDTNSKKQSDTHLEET

Row | Binder | Kd [2] [nM] | Kd [3] [nM] | other results
1 | B8 VNAR (VNAR, VNAR (shark single domain); Measured on yeast and as a soluble fragment (BLI); Not the same as B8 scFv) VNAR: ARVDQTPQTITKETGESLTINCVLRDASYALGSTCWYRKKSGSTNEESISIGGRYVETVNSGSKSFSLRINDLTVEDSGTYRCGVDSWCPPVCSWAYAGCGDGTAVTVN | 33.5 | 97.3 | IC50 (read off the curve) [1]: ~100 nM
2 | C7 VNAR (VNAR, Not the same as C7 scFv) VNAR: ARVDQTPQTITKETGESLTINCVVRDSACALVRTFWYRKKSGSTNEESISKGGRYVETVNSGSKSFSLRINDLTVEDSGTYRCKVFGWCRMRDVYGGGTVVTVN |  | 400 | 
3 | A9 VNAR (VNAR, VNAR (shark variable new antigen receptor single domain) from nurse sharks immunised with the PD-L1 ECD; Measured on yeast and as a soluble fragment (BLI)) VNAR: ARVDQTPQTITKETGESLTINCVVRDTACALVRTFWYRKKSGSTNEESISKGGRYVETVNRGSKSFSLRINDLTVEDSGTYRCKVFGWCRMRDVYGGGTVVTVN | 127 | 225 | 
4 | C4 VNAR (VNAR) VNAR: ARVDQTPLTITKETGESLTINCVLRDSNCALSSTYWYRKSSGSTNEEIISKGGRYVETVNSGSNSFSLRINDLTVEDSGTYRCKVFGWCRMRDVYGGGTVVTVN |  | > 1000 | 
5 | B11 VNAR (VNAR) VNAR: ARVDQTPQTITKETGESLTINCVLRDSNCALSSTYWYRKKSGSTNEESISKGGRYVETVNSGSKSFSLRINDLTVEDSGTYRCRLFVSWLSDYDCATYYVSGGGTVVTVN |  | > 1000 | 
6 | TS1521 (VNAR, part only; not given: atezolizumab heavy and light chains, part only) heavy, part: ARVDQTPQTITKETGESLTINCVLRDASYALGSTCWYRKKSGSTNEESISIGGRYVETVNSGSKSFSLRINDLTVEDSGTYRCGVDSWCPPVCSWAYAGCGDGTAVTVNGGGGSGGGGSGGGGS light, part: GGGGSGGGGSARVDQTPQTITKETGESLTINCVVRDTACALVRTFWYRKKSGSTNEESISKGGRYVETVNRGSKSFSLRINDLTVEDSGTYRCKVFGWCRMRDVYGGGTVVTVN |  |  | Kd (PD-L1 on cells [4]): 0.204 nM; TCR activation (NFAT-induced luminescence), FC50, antibody continuously present (PD-L1 on cells [5]): 0.51 nM; TCR activation (NFAT-induced luminescence), potency, antibody removed before addition of effector cells (PD-L1 on cells [5]): 0.95 nM; reduction in TCR activation potency, continued presence versus removal of antibody (PD-L1 on cells [5]): 1.9 fold

Reference: US20260049144A1 (Johns Hopkins, published 2026)
